Data from publication PMC4482361 (Organic & biomolecular chemistry, 2011).

T1: thymidine monophosphate kinase (TMK) (Escherichia coli, UniProt P0A720)
T1 sequence (P0A720 1-213): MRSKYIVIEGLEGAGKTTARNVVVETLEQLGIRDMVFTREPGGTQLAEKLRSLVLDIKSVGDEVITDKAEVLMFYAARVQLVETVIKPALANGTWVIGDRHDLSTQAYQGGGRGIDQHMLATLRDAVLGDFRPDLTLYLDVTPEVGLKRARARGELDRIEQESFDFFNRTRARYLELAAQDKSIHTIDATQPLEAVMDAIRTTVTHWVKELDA


Tests used:
[1] = biological target: T1, thymidine monophosphate kinase (TMK); assay: coupled assay with ACK, HPLC; format: biochemical; conditions: phosphate donor; same
SEC = biological target: the molecule itself; assay: SEC

| Molecule | coupled assay with ACK, HPLC [1] | stoichiometry N (SEC) |
| --- | --- | --- |
| Nc1ncnc2c1ncn2[C@@H]1O[C@H](COP(=O)(O)OP(=O)(O)OP(=O)(O)O)[C@@H](O)[C@H]1O [ATP] | ATP serves as a phosphate donor thereby converting into ADP | – |
| RavNMT (TDP-3-amino-3,6-dideoxy-D-galactose-N,N-dimethyltransferase) (enzyme, Streptomyces ravidus, UniProt D1H0I7 1-265, looked up) MSTLSVSQPGTPPTPADVEQAYGAEHADVYDAIYRGRGRDYAAEADAFLAVLRTRRPEITSLLDVACGTGAHLAALRGSVDHVEGVELSPWMHTLATRQLPGVAVHQDDMRSFNLSRRFSAVTCLFSSVGYLKSVEDLRRTLRTFRAHVAPGGVALVEPWWFPETFLDGYVGSSLVEVDGRTIARVSHTVRAGSTSRMTVEYTVAEPVNGVRRFSDLHVLSLFTREQYEDAFERAGFAVEFLKDGPSGRGLFLGVAPETTDGGPR | – | 2 |
| RavIM (TDP-4-keto-6-deoxy-D-glucose-3,4-ketoisomerase) (enzyme, Streptomyces ravidus, UniProt D1H0I6 1-156, looked up) MTDTTAATGTTAGTDVSRVGKVRPCALMKLQTIGDPRGQLAVVEGAKDIGFPVKRLFYLYDLPTSSVRGDHAHRNLEQFVIPINGSFDVAVDDTVDTAVCRLDDPGQGLYIGPMVWNSLVNFSEGAIALVLASEHYDEADYYRRYDEFLADAGARP | – | 2 |
| RavAMT (TDP-3-keto-6-deoxy-D-galactose-3-aminotransferase) (enzyme, Streptomyces ravidus, UniProt D1H0I5 1-369, looked up) MKVPYLDLKGPHTEIRAELDAAYHRVVDSGWFVLGEEVRAFEEEYAAYCGAAHCVSVATGCDALELALRALDIGPGDEVVVPSATYIATWLAVSETGADVVPVEVDPDTHLLDPAAVEAAVTPATRAVMPVHLYGQPADLPALRRVADRHGLALIDDAAQAHGARLNGTRVGGGGLATATAFSFYPGKNLGALGDGGGILTDDAELAERLRLLRNYGSRRKYHHELKSTNSRLDELHAAVLRAKLPHLDRWNARRAEIAERYRAAFADLPGLRPTAVPEGAEPSWHLYVVCCDDRDAVQRSLTDAGVGTLIHYPVPVHLSPAYADEKRWPAGAFPRAEAIAAQVLSLPMGPHLSDADVSYVIEAVRAAV | – | 2 |
